Measurements published in the RNAGym collection of RNA variant scans (doi:10.7554/elife.90254).

B1: OR4K15 (parent)
chain: GUUAACGGUCAUAGGCCAUGGAAACUAGGAGCACCAUUUCGCUGCCAGUGAAGAAAUGAACAAAGAAAAUCUGGGCCAGGCAGGCAUCAAAAGAAAUAGUCUUGCGCUCAACCAGAAAGUCUGUAAUCAUUUUAAGGGUA

Variants of: B1
Assay: self-cleavage, relative activity (ratio to wild type); higher = more cleavage; in vitro, sequencing; the parent is a self-cleaving ribozyme

In order of rising self-cleavage:
1. A78G A129G  0
2. U100C A111G  0.01
3. A94U G106U  0.01
4. U100C C107G  0.01
5. A69G C112U  0.01
6. A55G G106A  0.01
7. C81U U108C  0.02
8. A64U G115A  0.02
9. G74U A117G  0.02
10. G83A U108C  0.02
11. U103C A111G  0.02
12. A30U A111G  0.02
13. A67G G106A  0.02
14. G74A U108A  0.03
15. C85G A110G  0.03
16. U19G A111G  0.04
17. U9A G106C  0.05
18. U3C C105U  0.06
19. U72A A114C  0.06
20. U108C A134G  0.07
21. A82G A116U  0.07
22. U97C A111U  0.07
23. U19C G75U  0.08
24. G74U U120C  0.08
25. U87G A91G  0.11
26. A78C U100A  0.11
27. C76U A94G  0.13
28. G79A U130C  0.15
29. A69G U72A  0.19
30. A67G A78G  0.21
31. A47U A86G  0.23
32. A51G G79A  0.23
33. A69G U70C  0.25
34. A82U A92U  0.26
35. A22G A78G  0.27
36. U2C G75U  0.27
37. C10A A110G  0.31
38. C77A A114G  0.32
39. A54U U120C  0.32
40. U57C A116U  0.33
41. C81U  0.35
42. U3C U132G  0.36
43. A94G A114G  0.36
44. U9C C81U  0.36
45. A54U C109U  0.39
46. A52G U72A  0.4
47. A24U U131A  0.43
48. A24G A125G  0.43
49. A82G A118U  0.44
50. A90G A118U  0.45
51. A91G A118C  0.47
52. U87G A126G  0.48
53. U9C C109A  0.49
54. C6U A125G  0.53
55. A56G A116U  0.56
56. A51U A118G  0.6
57. A5U A82G  0.6
58. A96U A125G  0.61
59. U19C A140G  0.62
60. C10A A30G  0.63
61. A118G U131C  0.63
62. U3A A5U  0.64
63. A59G A98G  0.67
64. U2A A114G  0.67
65. A68G A135U  0.68
66. G7U A91G  0.72
67. A33G A94G  0.75
68. G20A A90G  0.76
69. A68G A98U  0.78
70. U70C U120A  0.8
71. A90G A118C  0.82
72. C6U U49C  0.83
73. A5C A116G  0.83
74. A4G U57C  0.86
75. A13U A62G  0.9
76. U19C C34U  0.91
77. A11G A116G  0.92
78. A56G A66U  0.92
79. G138A  0.93
80. U57C U131C  0.94
81. G20U A33U  0.94
82. A91G G138A  0.95
83. A64G A129U  0.99
84. A96G U97C  0.99
85. A62G A118G  1.01
86. U9C A27U  1.02
87. A89G A92G  1.02
88. A95G A125G  1.02
89. C17U U38A  1.03
90. U9C A90G  1.04
91. A118G U122C  1.04
92. A36G A114G  1.06
93. A33G A67G  1.06
94. A22G A69G  1.07
95. A126U U130C  1.08
96. A13G A89U  1.09
97. A36U A60G  1.11
98. G21A A66G  1.12
99. A22G A62G  1.12
100. U43G U103A  1.15
101. U57G A129G  1.15
102. A23G A140U  1.15
103. U19C A55G  1.17
104. U2A A36U  1.18
105. U37C A47G  1.19
106. C40U A62G  1.2
107. A96G U132C  1.21
108. U2C A30G  1.22
109. A23U A51G  1.24
110. A134U  1.26
111. A67G U87A  1.28
112. U49G A95G  1.28
113. A33U A64G  1.31
114. A30U U132C  1.33
115. C25U A47U  1.35
116. C32U A54G  1.37
117. A118G U124C  1.37
118. G44C A52G  1.4
119. G31A A56G  1.41
120. U26C A60U  1.43
121. U103C A125U  1.45
122. U19C U87A  1.48
123. A54G A96G  1.5
124. U2C U70G  1.51
125. U19C U87C  1.52
126. A11G U131G  1.52
127. A63U A140U  1.52
128. A18G U49A  1.54
129. A134G A135C  1.54
130. A62C A63G  1.55
131. U9A A36G  1.59
132. A52C A66G  1.59
133. U43C A92U  1.6
134. U19G A60G  1.61
135. U2C A54U  1.61
136. U19C A69U  1.62
137. G14U A54G  1.65
138. A47G A90C  1.68
139. A56G A96G  1.68
140. U3C A117G  1.69
141. A64C  1.69
142. U37C A66U  1.7
143. A36C A55G  1.7
144. A5C A59U  1.73
145. A96G U131C  1.73
146. U38C A134G  1.74
147. A5U A56G  1.76
148. A36G A126U  1.76
149. U9C U19C  1.77
150. U19A A67G  1.84
151. A23C U43C  1.86
152. G29A A92U  1.86
153. A36G U102C  1.88
154. A33U A117G  1.9
155. A92G A134U  2.03
156. A62G A126G  2.05
157. U100C  2.09
158. U2C A86U  2.13
159. A56U U133C  2.27
160. U100C A140G  2.28
161. U127A U139C  2.29
162. G7A A90U  2.31
163. A64U G123A  2.31
164. U100C G123A  2.36
165. U38A A118G  2.73
166. A51G C121U  2.74
167. U100C G123U  2.81
